Data as given in article PMC12090352, “Strigolactones enhance apple drought resistance via the MsABI5-MsSMXL1-MsNAC022 cascade”.

Target: T1, MsABI5 (Malus sieversii, UniProt A0A498IDK6 1-328+A0A540LD52:305-441, internal_change)
T1 sequence: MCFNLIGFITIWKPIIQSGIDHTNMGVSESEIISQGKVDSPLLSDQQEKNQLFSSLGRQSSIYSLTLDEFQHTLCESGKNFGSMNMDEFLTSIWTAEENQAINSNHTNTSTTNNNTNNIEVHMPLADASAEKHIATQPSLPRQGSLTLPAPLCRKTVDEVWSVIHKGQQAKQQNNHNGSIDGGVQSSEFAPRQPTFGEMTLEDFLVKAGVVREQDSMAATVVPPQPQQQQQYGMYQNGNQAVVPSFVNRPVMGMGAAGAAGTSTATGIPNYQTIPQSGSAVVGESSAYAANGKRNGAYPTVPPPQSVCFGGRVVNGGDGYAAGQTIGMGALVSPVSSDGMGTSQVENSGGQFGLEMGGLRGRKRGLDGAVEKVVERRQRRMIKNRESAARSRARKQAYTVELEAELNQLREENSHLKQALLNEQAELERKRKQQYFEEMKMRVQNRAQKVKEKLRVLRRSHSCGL
Assay: EMSA; EMSA per manufacturer's instructions (Beyotime); buffer, salt, pH and temperature not stated
Settings: protein: recombinant; tags: MBP (pMAL-C2X); chain copies: 2; blunt

| Binder | binding result |
| --- | --- |
| MsP5CS2.2 promoter ABRE probe (dsDNA) DNA 1: AGAAACCGACACGTCTCTCTTTTCTA DNA 2: TAGAAAAGAGAGACGTGTCGGTTTCT | binds |
| MsSMXL1 promoter P3 ACE probe (dsDNA) DNA 1: ATGTTGATTAACGTACCACTTAGTAC DNA 2: GTACTAAGTGGTACGTTAATCAACAT | binds |
